# Measurements: paper PMC10469194
# Target: REGN10987-based FabH3 heavy chain (VH - GS-G4 linker - IgG1 CH3 K392D, K409D)
# Assay: pull-down; co-purification from the soluble E. coli lysate by cobalt IMAC on the His6 tag of the heavy chain, native conditions; SDS-PAGE
# REGN10987-based FabH3 heavy chain (VH - GS-G4 linker - IgG1 CH3 K392D, K409D), sequence (heavy, as listed by the source): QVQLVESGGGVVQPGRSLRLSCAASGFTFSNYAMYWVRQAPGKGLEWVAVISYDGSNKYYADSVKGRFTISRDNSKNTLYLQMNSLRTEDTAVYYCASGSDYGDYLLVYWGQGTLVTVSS
substance,measurement,value
"REGN10987-based FabH3 light chain (VL - GS-G4 linker - IgG1 CH3 E356K, D399K)",stoichiometry N,1
